The text below walks through data of patent US20250163127A1 (published 2025).

Broadly, the EC50 is the concentration giving half of the maximal effect. Read a low EC50 as higher potency in that assay.

Where a chain is given by its changes, count along the chain named.

Assay [1] concerns the target T1, CD80 (human).
T1 chain: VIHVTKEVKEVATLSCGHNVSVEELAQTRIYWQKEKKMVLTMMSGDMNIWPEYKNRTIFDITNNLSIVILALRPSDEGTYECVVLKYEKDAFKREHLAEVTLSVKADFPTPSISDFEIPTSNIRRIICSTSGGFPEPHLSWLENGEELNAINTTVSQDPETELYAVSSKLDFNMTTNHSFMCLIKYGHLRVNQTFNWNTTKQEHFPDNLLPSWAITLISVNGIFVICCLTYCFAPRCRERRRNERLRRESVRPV
Nature of the assay: flow cytometry, CHO-CD80 cells.

Assay [2] has as its target human PD-1 (human, UniProt Q15116). Briefly: flow cytometry, Jurkat/IL-2/PD-1 cells. For orientation: A flow cytometer gives signals particle by particle.
Assay [3] deals with PD-1 (human, UniProt Q15116). Briefly: cell-based or functional assay.

B1: CTLA4 3037-Fc (Fc fusion)
chain: KAMHVAQPAVVLASSRGIASFVCEYASPWKATEVRVTVLRQADSQVTEVCAATYMMGSELTFPDDSICTGTSSGNQVNLTIRGLRAMDTGLYICKVEQMYPPPYLLGIGNGTQIYVIDPEPCPDSDGSGGGGSEPKSSDKTHTCPPCPAPEAEGAPSVFLFPPKPKDTLMISRTPEVTCVVVDVSHEDPEVKFNWYVDGVEVHNAKTKPREEQYNSTYRVVSVLTVLHQDWLNGKEYKCKVSNKALPAPIEKTISKAKGQPREPQVYTLPPSRDELTKNQVSLTCLVKGFYPSDIAVEWESNGQPENNYKTTPPVLDSDGSFFLYSKLTVDKSRWQQGNVFSCSVMHEALHNHYTQKSLSLSPG
Regarding B1, in assay [1], it took 1.7 nM to reach a half-maximal effect (EC50).

B2: CTLA-4 3037-Fc-PD-L1 303 (SEQ ID NO 3670) (Fc fusion)
chain: KAMHVAQPAVVLASSRGIASFVCEYASPWKATEVRVTVLRQADSQVTEVCAATYMMGSELTFPDDSICTGTSSGNQVNLTIRGLRAMDTGLYICKVEQMYPPPYLLGIGNGTQIYVIDPEPCPDSDGSGGGGSEPKSSDKTHTCPPCPAPEAEGAPSVFLFPPKPKDTLMISRTPEVTCVVVDVSHEDPEVKFNWYVDGVEVHNAKTKPREEQYNSTYRVVSVLTVLHQDWLNGKEYKCKVSNKALPAPIEKTISKAKGQPREPQVYTLPPSRDELTKNQVSLTCLVKGFYPSDIAVEWESNGQPENNYKTTPPVLDSDGSFFLYSKLTVDKSRWQQGNVFSCSVMHEALHNHYTQKSLSLSPGGGGGSGGGGSGGGGSFTVTVPKDLYVVEYGSNMTIECKFPVEKQLDLAALIVYWEMEGKDIIQFVHGEEDQKAQHSSYRQRARLLKDQLSLGNAALQITDVKLQDAGVYRCMISYGGGADYKRITVKVNA
On to B2, for which the EC50 was 1.9 nM in assay [1] and 4.5 nM in assay [2].

B3: CTLA-4 3037-PD-L1 303-Fc (Fc fusion)
chain: KAMHVAQPAVVLASSRGIASFVCEYASPWKATEVRVTVLRQADSQVTEVCAATYMMGSELTFPDDSICTGTSSGNQVNLTIRGLRAMDTGLYICKVEQMYPPPYLLGIGNGTQIYVIDPEPCPDSDGSGGSGGGGSGGGGSFTVTVPKDLYVVEYGSNMTIECKFPVEKQLDLAALIVYWEMEGKDIIQFVHGEEDQKAQHSSYRQRARLLKDQLSLGNAALQITDVKLQDAGVYRCMISYGGGADYKRITVKVNAGGGGSGSGGGGSEPKSSDKTHTCPPCPAPEAEGAPSVFLFPPKPKDTLMISRTPEVTCVVVDVSHEDPEVKFNWYVDGVEVHNAKTKPREEQYNSTYRVVSVLTVLHQDWLNGKEYKCKVSNKALPAPIEKTISKAKGQPREPQVYTLPPSRDELTKNQVSLTCLVKGFYPSDIAVEWESNGQPENNYKTTPPVLDSDGSFFLYSKLTVDKSRWQQGNVFSCSVMHEALHNHYTQKSLSLSPG
Take B3: the EC50 in assay [1] was determined as 2.3 nM; in assay [2], 111 nM.

B4: CTLA-4 3060-PD-L1 303-Fc (Fc fusion)
chain: B3 chain with L12F, R16H, M56T, S58N, P63L, R82Q
With B4, the EC50 in assay [1] was found to be 2.3 nM; in assay [2] it was 0.6 nM.

B5: CTLA4 3037-Fc-PD-L1 303 (SEQ ID NO 3672) (Fc fusion)
chain: KAMHVAQPAVVLASSRGIASFVCEYASPWKATEVRVTVLRQADSQVTEVCAATYMMGSELTFPDDSICTGTSSGNQVNLTIRGLRAMDTGLYICKVEQMYPPPYLLGIGNGTQIYVIDPEPCPDSDGSGGGGSEPKSSDKTHTCPPCPAPEAEGAPSVFLFPPKPKDTLMISRTPEVTCVVVDVSHEDPEVKFNWYVDGVEVHNAKTKPREEQYNSTYRVVSVLTVLHQDWLNGKEYKCKVSNKALPAPIEKTISKAKGQPREPQVYTLPPSRDELTKNQVSLTCLVKGFYPSDIAVEWESNGQPENNYKTTPPVLDSDGSFFLYSKLTVDKSRWQQGNVFSCSVMHEALHNHYTQKSLSLSPGGGGGSGGGGSGGGGSAFTVTVPKDLYVVEYGSNMTIECKFPVEKQLDLAALIVYWEMEGKDIIQFVHGEEDQKAQHSSYRQRARLLKDQLSLGNAALQITDVKLQDAGVYRCMISYGGGADYKRITVKVNA
Consider B5, for which the EC50 came out at 0.921 nM in assay [1] and 6.8 nM in assay [2].

B6: PD-L1 303-Fc (SEQ ID NO 3531) (Fc fusion)
chain: FTVTVPKDLYVVEYGSNMTIECKFPVEKQLDLAALIVYWEMEGKDIIQFVHGEEDQKAQHSSYRQRARLLKDQLSLGNAALQITDVKLQDAGVYRCMISYGGGADYKRITVKVNAGGGGSGGGGSEPKSSDKTHTCPPCPAPEAEGAPSVFLFPPKPKDTLMISRTPEVTCVVVDVSHEDPEVKFNWYVDGVEVHNAKTKPREEQYNSTYRVVSVLTVLHQDWLNGKEYKCKVSNKALPAPIEKTISKAKGQPREPQVYTLPPCREEMTKNQVSLWCLVKGFYPSDIAVEWESNGQPENNYKTTPPVLDSDGSFFLYSKLTVDKSRWQQGNVFSCSVMHEALHNHYTQKSLSLSPG
As to B6, the “% CD25 Hi FoxP3 +” value in assay [3] worked out at 24.8 % at 100 nM.

B7: PD-L1 303-Fc + Fc (Fc fusion)
chain 1: HMSSVSAQAAAEPKSSDKTHTCPPCPAPEAEGAPSVFLFPPKPKDTLMISRTPEVTCVVVDVSHEDPEVKFNWYVDGVEVHNAKTKPREEQYNSTYRVVSVLTVLHQDWLNGKEYKCKVSNKALPAPIEKTISKAKGQPREPQVYTLPPCREEMTKNQVSLWCLVKGFYPSDIAVEWESNGQPENNYKTTPPVLDSDGSFFLYSKLTVDKSRWQQGNVFSCSVMHEALHNHYTQKSLSLSPGK
chain 2: FTVTVPKDLYVVEYGSNMTIECKFPVEKQLDLAALIVYWEMEGKDIIQFVHGEEDQKAQHSSYRQRARLLKDQLSLGNAALQITDVKLQDAGVYRCMISYGGGADYKRITVKVNAGSGGSGGGGSGGGGSEPKSSDKTHTCPPCPAPEAEGAPSVFLFPPKPKDTLMISRTPEVTCVVVDVSHEDPEVKFNWYVDGVEVHNAKTKPREEQYNSTYRVVSVLTVLHQDWLNGKEYKCKVSNKALPAPIEKTISKAKGQPREPQVCTLPPSREEMTKNQVSLSCAVKGFYPSDIAVEWESNGQPENNYKTTPPVLDSDGSFFLVSKLTVDKSRWQQGNVFSCSVMHEALHNHYTQKSLSLSPGHHHHHH
Consider B7, for which, in assay [3], the “% CD25 Hi FoxP3 +” value turned out to be 25.9 % at 100 nM.

B8: PD-L2 1417-Fc + Fc (Fc fusion)
chain 1: B7 chain 1
chain 2: LFTVTVPKELYIIEQGSNVTLECNFDTGSHVNLGAITASLQKVENDASPHRERATLLEEQLPLGRALFHIPQVQVRDEGQYRCIIIYGDAWDYKYLTLKVKAGSGGSGGGGSGGGGSEPKSSDKTHTCPPCPAPEAEGAPSVFLFPPKPKDTLMISRTPEVTCVVVDVSHEDPEVKFNWYVDGVEVHNAKTKPREEQYNSTYRVVSVLTVLHQDWLNGKEYKCKVSNKALPAPIEKTISKAKGQPREPQVCTLPPSREEMTKNQVSLSCAVKGFYPSDIAVEWESNGQPENNYKTTPPVLDSDGSFFLVSKLTVDKSRWQQGNVFSCSVMHEALHNHYTQKSLSLSPGHHHHHH
For B8, the “% CD25 Hi FoxP3 +” value in assay [3] was found to be 26.8 % at 100 nM.

B9: PD-L1 303-CTLA-4 3037-Fc (Fc fusion)
chain: FTVTVPKDLYVVEYGSNMTIECKFPVEKQLDLAALIVYWEMEGKDIIQFVHGEEDQKAQHSSYRQRARLLKDQLSLGNAALQITDVKLQDAGVYRCMISYGGGADYKRITVKVNAGSGGSGGGGSGGGGSKAMHVAQPAVVLASSRGIASFVCEYASPWKATEVRVTVLRQADSQVTEVCAATYMMGSELTFPDDSICTGTSSGNQVNLTIRGLRAMDTGLYICKVEQMYPPPYLLGIGNGTQIYVIDPEPCPDSDGGGGSGSGGGGSEPKSSDKTHTCPPCPAPEAEGAPSVFLFPPKPKDTLMISRTPEVTCVVVDVSHEDPEVKFNWYVDGVEVHNAKTKPREEQYNSTYRVVSVLTVLHQDWLNGKEYKCKVSNKALPAPIEKTISKAKGQPREPQVYTLPPSRDELTKNQVSLTCLVKGFYPSDIAVEWESNGQPENNYKTTPPVLDSDGSFFLYSKLTVDKSRWQQGNVFSCSVMHEALHNHYTQKSLSLSPG
As for B9, the EC50 in assay [1] was determined as 1.4 nM; in assay [2] it was 1 nM.

B10: PD-L1 303-CTLA4 3060-Fc (Fc fusion)
chain: B9 chain with L142F, R146H, M186T, S188N, P193L, R212Q
On to B10, for which the values for the EC50 in assay [1] and in assay [2] were 3.4 nM and 0.5 nM, respectively.

B11: PD-L1 303-COMP (other)
chain: FTVTVPKDLYVVEYGSNMTIECKFPVEKQLDLAALIVYWEMEGKDIIQFVHGEEDQKAQHSSYRQRARLLKDQLSLGNAALQITDVKLQDAGVYRCMISYGGGADYKRITVKVNAGGGGSGGGGSGGGGSDLGPQMLRELQETNAALQDVRELLRQQVREITFLKNTVMECDACGDYKDDDDKHHHHHH
As to B11, the “% CD25 Hi FoxP3 +” value in assay [3] came to 23.5 % at 100 nM.
